Results taken from the domain aggregation screens of Martell et al. (2025).

Test: soluble fraction after stress (log2 fold change); higher = more stays soluble; pooled small domains, quantitative proteomics
Conditions: stress: pH 4
Procedure, shortened: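 High-throughput quantitative proteomics was run on pooled custom libraries of small protein domains following pH 4 stress. Fold changes are on a log2 scale; higher values mean more of a domain remained soluble. The fold change in soluble amount is taken as a measure of aggregation propensity.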

Row | Sequence | soluble fraction (log2)
1 | HMDSPALAIPSSAILRDGLEHIFFRQDPSDPDQVIRVVADLGLSDGRWTVVRSGLERTDQVVLSGA | -0.281
2 | HMDSQKKNETLSSTADEIIKNYAGKRDLSEESMEQLEQFQKDMRGADVNIFTAAQIRMLDQIFQENLH | 0.0679
3 | HMDSSLVWVDYLLGSKLTKLNSSNELTGPGASAKTIGAFLGENKQSFDLYIESVHNARDTYSDILTHGT | -0.122
4 | HMDSSSYSAKVGTLIQETRQARGMTQAQLAQALGTSQSAINRIEKGGQNISLDMLNRISEVLSSQIVTLNP | -0.255
5 | HMDSVAKSFLAEIERFLETAGLEPTTLGKQALGDPSFVFDLRKGRSPSTRTIGKLRVWMQQQNALS | -1.24
6 | HMDSVTLGISFNGKTRFTLDFPADAAAADIEKAALEAEQSQRYLEGMTVAKVIVVPGRIVNIVLK | -0.185
7 | HMDSVTMYATTGVNVRSGPSTSYSIVGGLDRGDKVTRIGTSGNWTKVVWGNGSAYVFSKYLQTGY | 0.232
8 | HMDTAEQNWRLRGKLVTLGLNARQIRMALASHAPRYLEDNIAVVERDLAAGKVRNLPAYLLAALREDYRP | -0.147
9 | HMDTEIGDILALRQIMELLDEKDRQLIIMRYFQGLTQSVTAKNLNMTQVQVSRREKKLLTFMREQLL | -0.761
10 | HMDTEVVMINVVGMNIDKAKNSLNHKNILYKISYQDVSEGENNVVLKQSISSNTKIKKGQVVSLVVGKLN | -0.0691
11 | HMDTFEITVEESDIDKRIDLFLAGNLESFSRSYIQDLIKKGKATISGKPVKANYRLREGDSVVLSIPKPK | -0.946
12 | HMDTGKLQSLVGSRGVAHTVLRPSGKVMIGDDVYPAVAETGFIPRGTAIVVRREEQGQLYVVEARK | 0.275
13 | HMDTGPISGQVEADRVEVHGHLDGKISAQNVVVGQTGVVKGDIEFGENLRTEEGADIEGYIK | 0.22
14 | HMDTGPSFATRRQEAFNALTQIAASNKEFMNVAGDVLWKVADFPEAQILAQRWRRIIPPNVLGEA | -0.438
15 | HMDTIAEFIAELTPLEQKVFHVYYEKGQSLKDTAQQAEITSTSARGALDRIRAKGRHFHLAVILFIG | -1.22
16 | HMDTINEYERNILSLITSKPGISAVQIAADTDKSIITAKRGIKTLVDGKLIEYRGSKKTGGYFLLTQS | 0.275
17 | HMDTIYMVVAKNIKYYRLIKSMSKKDLAEAVNVTPMAISNYENGKRKPEIDILKKIANVLGVRVVDFLTVR | -0.194
18 | HMDTKLFNYGVGKHAYISWNEGGKRTAYIGFGNDGADVLTINNVKQGGSLGIYKDKITLNSQTVLTD | -0.381
19 | HMDTLHGRILEEFSRKIVDGTWPPGFSLPKETELADQYGVSRMTMNKVLTRLASDGFVIRRKRSGTVVAQP | -0.176
20 | HMDTLTRAMVWTIIARAEGVDTTGGATWYAKAQEWVTAKGISDGENPNAAITRQELVTMLYRLAGEPAV | -0.681
21 | HMDTMQQESMDTKSILATALMELTSRKNFAKITIADITHVSGFNRQTFYYHFRDKYELLSWIY | -0.117
22 | HMDTNRIIGNKIYQLRRSINMTQQELAEKVGISVTFLSEIENGRKSMSVDTLIKLSKGLQVSLDTIVF | -0.831
23 | HMDTPVYYYVNGNGVRMRKDASLESDILILLYKGTKVEYVDVKGEWIKVKYNNEIGYIRNDLLSAEMPD | -0.527
24 | HMDTQITPNKAKEIALAHAGVTEAAANFKKIKLDNKNGKSIYEIEFIANKSRYEFIVDAKNGSIIKFEK | 0.102
25 | HMDTRKEREIALYEAALRLIASGVNPAAMKVQQIADEAGIGKGTVYEYFASKEEILHGMALH | -0.36

Row | Sequence | soluble fraction (log2)
26 | HMDTTLFGLFQNVILTQEDYEELSRTIVEDLDGLIDRLSAYMTSTGKTYKNHKATLLSWYLQDEKKFK | -1.49
27 | HMDTVEALTEQLKKLDKRGEGQIPAPEFKQYMMNMGGKMTAEELDEMMKVADPGKEGVVNIAEFADAL | -0.229
28 | HMDTVEFPVQVNGKVRGKITVAADAGKDAIETAALADEKVLAFLDGATPKKVIVVPGKLVNLVVQPG | ≥ 0.43
29 | HMDTVSYMSDAVKAGAVTPSHDEEARARYLLYAGFGAILLFLRYEASEPGDIESAIREFMERYGPVTAELY | 0.00707
30 | HMDTYKGFIFEVVDKYFSPTLNQKIGQAKNKQGIVLLQTKPSFTQDPKVLIEELKLIIDRDNLKA | -0.362
31 | HMDVAAQITYAMRTMGVAPIPRNYELFYEAYIGSNPALTKELAALGSKATQEELDELGQQYF | -1.43
32 | HMDVFPDESLKAWLIEMGFKLDQKKMNVFTVLRRMLLQTAPSVKEFRILEIVLQQSRRKLKELNDLKKS | -0.36
33 | HMDVKQSAAGVAGRIRFELNRTLTGQGHEKFTSASQAIGPRPAAELARRLFNSGSVVGVHVFANIVTVDLL | 0.088
34 | HMDVLKMKVEDLNIGSRTVNSLTAAKIKTVAGLIKKSKESLLELDGMGNKGVEEIILALKKLGLEL | 0.345
35 | HMDVPTEEAILAYNNVPIELAAKFIGWSDITIRYALQEERAPFGMAAQNPKTGTWSYNISPGLLLKYKSGE | -0.39
36 | HMDVPVEVFMERIVTALREGRKTTFSELMEGKPERGKVIGTFLALLQLSKGQQIQIHQEQRTGEISIEGGA | -1.03
37 | HMDVQTVTVIENVNVRKSASENGQKLGLAYTGEKLELLMKQADGWTRVKYNGETAYVKSDYV | -0.0843
38 | HMDVTSLDMLRFLMDQHGLRQQDLSELGSQGVVSEILAGKRELNLRHIGALARRFKVPPEVFLPA | -0.619
39 | HMDVYKRQKLRNFIESLFEDAPKNKQTIELKEEMLQNLIDKYNDLVDSGKSSEAAYNIATAS | -0.0341
40 | HMDWNPVRDITAHQVLAILQATHIRAPTVAAEAKRTLSSIFQFAVATLRADIDPVWPVRNALPKNKT | -0.561
41 | HMDYARYGLSEKEAELIELIAQGMNNKEISAEIYLSEGTVRNYISELLEKLELRDRTQLAVYYYTHR | -1.52
42 | HMDYDDLVPLDARGRLRLDGQDIILAFGRHRGRSIEEVHNHDKSYFDWLVSPAGGLEDEVIATLRERF | -1.4
43 | HMDYENGTVKWFNTKKGYGFITRENGEDLFVHFRNIKGRGRRSLNDGEPVTFVVIEGDKGLQADQVSA | -0.754
44 | HMDYGSLQRAIENQLEVRNYQKPKKFLTKIIQLMETIMVRHGVMVVGLTGTGKTTVIETLSRSMEQ | -0.529
45 | HMDYIGIQAAKEAALKDADISSEQAVFTMAELDNKNNIFYYQIMFTENGTEYRYDIDALTGVIIEKNHFF | -0.0659
46 | HMDYKLDVNFPEMYLEQIPAEKRAALIQILEQDPRPSYQKDPVRIYGMSYAGMEIHFRVDKETLYVTEVER | -0.0453
47 | HMDYLSEFITDKVVRADGYSIRKGELSNEFKQWFITNVGTKNPKPKEIHDYMDRKFGKNKNGIWKNVKIKL | -0.0984
48 | HMDYQEVEFEKLGKEILTKILLDINKKATKKTLKILIDGFNYDSYRSFYIAIGKAQISSDSILELLQH | -0.524
49 | HMDYSWNFFIGFSVVDKVAGNLGTIEEIDDKTINTLFLVKNDDEDLIIPATEDFVEKIDAKKRILYLNLPE | -1.79
50 | HMDYYASVDQVWRELGLAGPARRALIDDGLFKLSDLRKTSLAAVKELHGMGPNAIRILTTEMKKADLSFR | ≥ 0.43

Row | Sequence | soluble fraction (log2)
51 | HMDYYDTLGVPRNASQSDIKKAYKKQSMQHHPDRTGGDDTKFKDVNEAYQVLSNSEKKQMYDQFGTA | 0.0201
52 | HMDYYNILGVNKAATAQDIKRAYRKLAKEHHPDHGGDATRLQQVNEAYDTLKDPQRREQYDS | 0.0634
53 | HMEAADAGTLAQRAAQYFNEKNYAAALDALERRAAMAPETTELRMMRGWSLLHLNRKDEARNAFATLG | -0.188
54 | HMEAAIRNALSRVENPDETQRARIYRTAHDALIRNLENRGITDPEQVRPQVSRLKDLISVIEREYHG | -0.0565
55 | HMEAALTLRVDKAGSLRSLLSDEQYAKTSKIIVSGEINTLDIKTLQEMSGEKGSLQSIDLSQANIVAY | -0.351
56 | HMEAFELTPREKQVLQLLVQGKAYKIIAADLDITYDTVRAHIKKIYEKLHVGSMTEAVAKAIQHKL | 0.194
57 | HMEAKKVIAVHIIGEINKPGIVELEEGARVIDAIKKAGGTTEKADLAQINLAYILKDGQKIYIPNTEDN | -0.334
58 | HMEALASESVKDKIRKIIDSEDPSRPMSDQRIKEMLKAANIDIARRTVTKYREAMNILSSTKRRQV | -0.168
59 | HMEALDPLTAREQEVLEMILSGKSNREIAAELHITENTVKTHAQSIYSKYDVRGRAKLISLLLKGEA | -0.192
60 | HMEALQKVSINYYDEGAGKQIAEVPLEVGAGDTEIALAVINKYMPAEYNLVSTDYQIRGGYVYVSVTPA | -0.215
61 | HMEAPPHEALSNREFQVLQLLSQGRSVTQIAHQLTLSANTISTYRARIFDKLGLHNPADLYAYAARHGLM | -0.0709
62 | HMEAPWQEIKRQVMDGLDMSREFTDEELRERIALAVRSYSKEKLLSLKVRESYEEQIFNSFR | -0.261
63 | HMEAQFIDINDVRIGTYVYVDLGWIKHPFALNSFKITSRDQIDTLIKLGVKRIRWSPEKSDS | -0.483
64 | HMEARNDWAQQSRADAEFGGEKLDENLAVAKKAVEALASPELKTLLEQSGLGNHPEIIRLFYRAGRSLS | -0.122
65 | HMEATILTATPEAAGQRLDAFLAETLPELTRSAAQRLIAEGQVAVDGKIPTKSLKLAGGETVSVRLPEPE | -0.0707
66 | HMEAVIGGIYRHYKGNNYKLLAVATHSETLEKMAVYQALYGEMGIWVRPLAMFMETIEKDGQSLKRFE | -0.932
67 | HMEDAWMKKELWDAIATLPKKQRLVMTMRLTNNHSYKEIAAILGISENSAKVSYHHAVERLKEKFK | 0.0668
68 | HMEDDPIYEQVMIFLLDKQITSAPELERRFKITHQRAIELLAQMEKTGIVSTMGHAGKRDVLT | -0.355
69 | HMEDEFNQIASQKNVPSFLGKGKKEVINIAKKNKIKINLSGNGYVKRQIPAPGEVISHLDEVTIFLEPG | -0.179
70 | HMEDEVYFVPSPASRFNPWIAALASRRVPYRVEYDGAERRIAVPAGYAEKAGEELAAYERINHAWPR | -0.111
71 | HMEDFDLSDTERKIIAQIGHGYSNKEIAQKLGFSEGTIRNYLSVILDKLDLRDRTQLAIWYLSR | -0.229
72 | HMEDIAAIAQRIQGLRDIVGISVEEMAKALDISEQEYREYEKGETDFSFSFLYTVANVLGINITDLI | -1.56
73 | HMEDIEEVIVEIDTVLRTHFDRGRTEVLFAEIETAGGRPFMTYLALLFMAHRGSVRLQQDDLFGDLWVKDP | -0.959
74 | HMEDISLYKILRAHSIDNLKLSQWIIDSLKTKFSTIGELQDAKIDDIRMYRIQDVRIEKIKNAVTEYMA | -0.701
75 | HMEDISQHAVKKLVQEMVMAEDPRDPLSDQQIAENLSRLGLKVARRTVAKYRAMLGIQPSNRRRK | 0.0963
